The values below come from US20250011363A1, “OPTIMIZED SHORTENED PEPTIDE THAT BINDS TO ACETYLCHOLINE RECEPTOR, AND USE THEREOF” (SKINMED CO., LTD., priority 2021, published 2025).

The experiment concerns the target acetylcholine receptor (Homo sapiens, UniProt P02708). The experiment can be described thus: SPR binding affinity (RU) of optimized 5mer/6mer/7mer peptides, Examples 6-7. The conditions noted are these: SPR, peptides tested at 10 μM. Here is the method:
Based on the frequencies of occurrence of the top 7 amino acids from Table 7 in Example 5, 600 peptides comprising these amino acids (top combinations) and those comprising the 13 less frequently occurring amino acids (bottom combinations) were synthesized for each series of 5mer, 6mer-1, and 6mer-2. The binding affinity of each sequence for the acetylcholine receptor was measured using Surface Plasmon Resonance (SPR) analysis method. The peptides were tested at a concentration of 10 μM. Additionally, the average binding affinities of the top and bottom combinations in each series are depicted in FIGS. 5-7.
Representative peptides identified in Example 6, two in each library, including 5mers (73, 311) and 6mers-1 (43, 210) and 6mers-2 (136, 233), were compared with the pre-optimized 6mer, 5mer-ND, and Synake.
In general terms: Surface plasmon resonance follows binding to a sensor surface in real time, without labels.

[1] abbreviates: 5mer Top sequence (top combinations).

Sequence of acetylcholine receptor (P02708 21-457): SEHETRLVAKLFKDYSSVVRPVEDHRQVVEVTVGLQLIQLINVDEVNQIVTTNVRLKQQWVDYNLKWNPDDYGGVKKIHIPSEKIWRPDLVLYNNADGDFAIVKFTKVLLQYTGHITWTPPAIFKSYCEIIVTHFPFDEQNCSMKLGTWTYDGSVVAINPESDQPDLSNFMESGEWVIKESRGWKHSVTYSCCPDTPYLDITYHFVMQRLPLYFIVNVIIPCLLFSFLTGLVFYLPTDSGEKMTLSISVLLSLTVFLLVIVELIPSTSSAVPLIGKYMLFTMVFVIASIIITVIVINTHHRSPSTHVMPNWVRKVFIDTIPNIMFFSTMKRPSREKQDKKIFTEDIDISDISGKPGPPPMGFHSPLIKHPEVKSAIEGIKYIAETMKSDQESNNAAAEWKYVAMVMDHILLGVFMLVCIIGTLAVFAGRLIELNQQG

Consider 5mer-141 (RWQQR), for which the Binding affinity (5mer Top sequence) is on record as 50 Ru.
Same read-out and setting: as for 5mer-142 (RQYSR), the figure is 52 Ru.
In the case of 5mer-143 (KGQQR), under “5mer Top sequence”, the Binding affinity is recorded as 64 Ru.
On the same count and under the same terms, as for 5mer-144 (KRFSK), the figure is 58 Ru; as for 5mer-145 (RSFSK), 62 Ru.
Still for that read-out and setting: for 5mer-146 (RWFTK) the value was 52 Ru; for 5mer-147 (RRYQK), 66 Ru.
On to 5mer-148 (RSQTK), for which the Binding affinity (5mer Top sequence) is on record as 50 Ru.
The same measure, in the same setting: for 5mer-149 (KQFLR) the value was 80 Ru; for 5mer-150 (RVRTR), 64 Ru; for 5mer-151 (RVFTK), 66 Ru.
Still for that read-out and setting: for 5mer-152 (RRRRR) the value was 56 Ru; for 5mer-153 (RSIQK), 72 Ru.
As to 5mer-154 (RSITR), the Binding affinity (5mer Top sequence) turned out to be 54 Ru.
The same measure, in the same setting: for 5mer-155 (KRYLR) the value was 57 Ru.
Still for that read-out and setting: for 5mer-156 (KGLRK) the value was 85 Ru; for 5mer-157 (KGRCR), 78 Ru; for 5mer-158 (RWQTK), 65 Ru.
On the same count and under the same terms, for 5mer-159 (RGQRR) the value was 73 Ru; for 5mer-160 (RSIRR), 53 Ru; for 5mer-161 (KWVTK), 52 Ru.
Turning to 5mer-162 (RGYQR), where the note is “5mer Top sequence”, the Binding affinity was 51 Ru.
The same measure, in the same setting: for 5mer-163 (KSLCK) the value was 61 Ru.
With 5mer-164 (KSICK), under “5mer Top sequence”, the Binding affinity is given as 54 Ru.
The same measure, in the same setting: for 5mer-165 (KWRSK) the value was 56 Ru; for 5mer-166 (KSFQR), 55 Ru.
On the same count and under the same terms, for 5mer-167 (KQFRK) the value was 64 Ru.
The same measure, in the same setting: as for 5mer-168 (KLFSK), the figure is 84 Ru; as for 5mer-169 (RWYRK), 61 Ru.
Consider 5mer-170 (RLICK), for which the Binding affinity (5mer Top sequence) was found to be 62 Ru.
The same measure, in the same setting: as for 5mer-171 (KSIQR), the figure is 55 Ru; as for 5mer-172 (RSRRR), 82 Ru; as for 5mer-173 (RSVSR), 59 Ru.
For 5mer-174 (KGRQR), the Binding affinity (5mer Top sequence) turned out to be 59 Ru.
Still for that read-out and setting: as for 5mer-175 (RWQLK), the figure is 63 Ru; as for 5mer-176 (RVLYK), 52 Ru.
As to 5mer-177 (RWVRK), for the setting “5mer Top sequence”, the Binding affinity was found to be 77 Ru.
Still for that read-out and setting: for 5mer-178 (RRVLK) the value was 87 Ru; for 5mer-179 (RLYTK), 55 Ru.
5mer-180 (KQRYR): for the setting “5mer Top sequence”, the Binding affinity was 74 Ru.
In the case of 5mer-181 (RSLLK), for the setting “5mer Top sequence”, the Binding affinity is 72 Ru.
Same read-out and setting: as for 5mer-182 (RVLSK), the figure is 70 Ru; as for 5mer-183 (KRVYR), 64 Ru; as for 5mer-184 (KLQCR), 68 Ru.
Still for that read-out and setting: for 5mer-185 (RRYRR) the value was 86 Ru; for 5mer-186 (KRLQR), 64 Ru.
Take 5mer-187 (RWVCR): the Binding affinity (5mer Top sequence) amounted to 74 Ru.
With 5mer-188 (KWFSK), the Binding affinity (5mer Top sequence) is listed as 82 Ru.
The same measure, in the same setting: for 5mer-189 (RLLQK) the value was 65 Ru; for 5mer-190 (RWRSR), 84 Ru; for 5mer-191 (RVRCR), 75 Ru.
Still for that read-out and setting: for 5mer-192 (KSFRK) the value was 75 Ru; for 5mer-193 (RVIRK), 80 Ru; for 5mer-194 (KWQSK), 84 Ru.
Still for that read-out and setting: for 5mer-195 (KVVSR) the value was 82 Ru; for 5mer-196 (RSYYR), 69 Ru.
On to 5mer-197 (RSRQK), for which the Binding affinity (5mer Top sequence) is on record as 68 Ru.
Consider 5mer-198 (KLISR), for which the Binding affinity (5mer Top sequence) turned out to be 74 Ru.
Same read-out and setting: as for 5mer-199 (KRYQR), the figure is 84 Ru.
On the same count and under the same terms, as for 5mer-200 (KRVRR), the figure is 55 Ru.
On to 5mer-201 (RWIYR), for which the Binding affinity (5mer Top sequence) is 62 Ru.
The same measure, in the same setting: for 5mer-202 (KWYRR) the value was 65 Ru; for 5mer-203 (RQLTR), 78 Ru; for 5mer-204 (RQFQR), 84 Ru.
On the same count and under the same terms, as for 5mer-205 (RWYYR), the figure is 75 Ru; as for 5mer-206 (KLQLR), 57 Ru; as for 5mer-207 (KQVRR), 72 Ru.
The same measure, in the same setting: as for 5mer-208 (KLICR), the figure is 80 Ru.
Take 5mer-209 (RGVRR): the Binding affinity (5mer Top sequence) amounted to 78 Ru.
Same read-out and setting: for 5mer-210 (KVYYR) the value was 67 Ru; for 5mer-211 (RLYYR), 73 Ru.
For the substance 5mer-212 (KQQYK), the Binding affinity under setting [1] was found to be 64 Ru.
Regarding 5mer-213 (RQYTK), the Binding affinity under setting [1] came out at 83 Ru.
Consider 5mer-214 (KQQCK), for which, under setting [1], the Binding affinity is on record as 79 Ru.
With 5mer-215 (RQYRR), the Binding affinity under setting [1] came out at 79 Ru.
Still for that read-out and setting: as for 5mer-216 (KWVRR), the figure is 56 Ru.
The same measure, in the same setting: as for 5mer-217 (KLQRR), the figure is 72 Ru; as for 5mer-218 (KVQYK), 80 Ru.
Same read-out and setting: for 5mer-219 (KQYTR) the value was 55 Ru.
Regarding 5mer-220 (KRILR), the Binding affinity under setting [1] is recorded as 81 Ru.
Same read-out and setting: for 5mer-221 (RGRTR) the value was 58 Ru; for 5mer-222 (KWLLR), 86 Ru.
On the same count and under the same terms, for 5mer-223 (KQVRK) the value was 61 Ru; for 5mer-224 (RLQRR), 67 Ru; for 5mer-225 (KRQQK), 51 Ru.
On the same count and under the same terms, as for 5mer-226 (RRYTR), the figure is 60 Ru; as for 5mer-227 (RRQQR), 84 Ru; as for 5mer-228 (KRFLK), 53 Ru.
Consider 5mer-229 (KGLTR), for which, under setting [1], the Binding affinity is listed as 84 Ru.
The same measure, in the same setting: as for 5mer-230 (KVLCR), the figure is 67 Ru.
Same read-out and setting: as for 5mer-231 (KGLLK), the figure is 60 Ru; as for 5mer-232 (KWYTR), 71 Ru.
The same measure, in the same setting: as for 5mer-233 (RVYYK), the figure is 84 Ru; as for 5mer-234 (RQYCR), 62 Ru.
For the substance 5mer-235 (KGYSK), the Binding affinity under setting [1] stood at 70 Ru.
Still for that read-out and setting: for 5mer-236 (KRRCK) the value was 81 Ru; for 5mer-237 (RGLRK), 77 Ru.
As for 5mer-238 (KQVLK), the Binding affinity under setting [1] stood at 58 Ru.
Still for that read-out and setting: for 5mer-239 (KRLYR) the value was 61 Ru; for 5mer-240 (KWRYR), 51 Ru.
Same read-out and setting: as for 5mer-241 (KVRCR), the figure is 51 Ru.
Still for that read-out and setting: as for 5mer-242 (RGYTK), the figure is 64 Ru; as for 5mer-243 (KLLSK), 51 Ru; as for 5mer-244 (KSVSK), 78 Ru.
As to 5mer-245 (RQRSK), the Binding affinity under setting [1] was found to be 62 Ru.
Consider 5mer-246 (KSFTR), for which, under setting [1], the Binding affinity is given as 60 Ru.
The same measure, in the same setting: as for 5mer-247 (RWYCR), the figure is 80 Ru; as for 5mer-248 (RWYLK), 63 Ru.
The same measure, in the same setting: for 5mer-249 (RSYCR) the value was 52 Ru; for 5mer-250 (RQFSR), 76 Ru; for 5mer-251 (KRISK), 70 Ru.
Same read-out and setting: as for 5mer-252 (KQYRK), the figure is 53 Ru; as for 5mer-253 (RSLYR), 75 Ru.
Turning to 5mer-254 (KLLRK), the Binding affinity under setting [1] was determined as 87 Ru.
On the same count and under the same terms, as for 5mer-255 (KQRTR), the figure is 82 Ru.
Same read-out and setting: for 5mer-256 (RGVCK) the value was 60 Ru; for 5mer-257 (RQFTR), 85 Ru.
5mer-258 (KRQYK): the Binding affinity under setting [1] was 84 Ru.
On the same count and under the same terms, for 5mer-259 (RLIRK) the value was 71 Ru.
The same measure, in the same setting: for 5mer-260 (KVYRR) the value was 57 Ru.
On the same count and under the same terms, as for 5mer-261 (RRVLR), the figure is 59 Ru.
For the substance 5mer-262 (KSRCR), under setting [1], the Binding affinity amounted to 59 Ru.
Still for that read-out and setting: for 5mer-263 (KQVTR) the value was 80 Ru; for 5mer-264 (KWYRK), 50 Ru.
5mer-265 (RWQCR): the Binding affinity under setting [1] is 77 Ru.
On the same count and under the same terms, as for 5mer-266 (KSYQK), the figure is 66 Ru.
Still for that read-out and setting: as for 5mer-267 (KRLLK), the figure is 66 Ru; as for 5mer-268 (KRYCK), 54 Ru.
The same measure, in the same setting: as for 5mer-269 (RLFLR), the figure is 85 Ru; as for 5mer-270 (RSQQR), 52 Ru; as for 5mer-271 (RGRYR), 68 Ru.
With 5mer-272 (KGYQR), under setting [1], the Binding affinity is listed as 83 Ru.
Still for that read-out and setting: as for 5mer-273 (RVQSK), the figure is 82 Ru; as for 5mer-274 (RQVRK), 62 Ru.
Still for that read-out and setting: for 5mer-275 (KVYTR) the value was 64 Ru; for 5mer-276 (RSLRR), 70 Ru.
